IntAct's records for PubMed 9278513

B1: Response regulator Rcp1 (Synechocystis sp. (strain PCC 6803 / Kazusa)), Q55169 (parent)
chain: MSDESNPPKVILLVEDSKADSRLVQEVLKTSTIDHELIILRDGLAAMAFLQQQGEYENSPRPNLILLDLNLPKKDGREVLAEIKQNPDLKRIPVVVLTTSHNEDDVIASYELHVNCYLTKSRNLKDLFKMVQGIESFWLETVTLPAA
B2: Phytochrome-like protein Cph1 (Synechocystis sp. (strain PCC 6803 / Kazusa)), Q55168 (parent)
chain: MATTVQLSDQSLRQLETLAIHTAHLIQPHGLVVVLQEPDLTISQISANCTGILGRSPEDLLGRTLGEVFDSFQIDPIQSRLTAGQISSLNPSKLWARVMGDDFVIFDGVFHRNSDGLLVCELEPAYTSDNLPFLGFYHMANAALNRLRQQANLRDFYDVIVEEVRRMTGFDRVMLYRFDENNHGDVIAEDKRDDMEPYLGLHYPESDIPQPARRLFIHNPIRVIPDVYGVAVPLTPAVNPSTNRAVDLTESILRSAYHCHLTYLKNMGVGASLTISLIKDGHLWGLIACHHQTPKVIPFELRKACEFFGRVVFSNISAQEDTETFDYRVQLAEHEAVLLDKMTTAADFVEGLTNHPDRLLGLTGSQGAAICFGEKLILVGETPDEKAVQYLLQWLENREVQDVFFTSSLSQIYPDAVNFKSVASGLLAIPIARHNFLLWFRPEVLQTVNWGGDPNHAYEATQEDGKIELHPRQSFDLWKEIVRLQSLPWQSVEIQSALALKKAIVNLILRQAEELAQLARNLERSNADLKKFAYIASHDLQEPLNQVSNYVQLLEMRYSEALDEDAKDFIDFAVTGVSLMQTLIDDILTYAKVDTQYAQLTFTDVQEVVDKALANLKQRIEESGAEIEVGSMPAVMADQIQLMQVFQNLIANGIKFAGDKSPKIKIWGDRQEDAWVFAVQDNGIGIDPQFFERIFVIFQRLHTRDEYKGTGMGLAICKKIIEGHQGQIWLESNPGEGSTFYFSIPIGN
partner: B1 chain

Variants of: B1
Conditions: with phy1_syny3 cph1, Q55168

Variant | effect of a mutation on the interaction
MSDESNPPKVILLVEDSKADSRLVQEVLKTSTIDHELIILRDGLAAMAFLQQQGEYENSPRPNLILLALNLPKKDGREVLAEIKQNPDLKRIPVVVLTTSHNEDDVIASYELHVNCYLTKSRNLKDLFKMVQGIESFWLETVTLPAA | disrupting interaction

Variants of: B2
Conditions: with rcp1_syny3 rcp1, Q55169

Variant | effect of a mutation on the interaction
H538K | disrupting interaction
